Substitutions are numbered along the chain they refer to. In names and notes the source's numbering stands. Values belong to the binder of their own block, whether it stands above or below them.
Assays:
RANKL [1] = target: T1, RANKL (human, UniProt O14788 140-317, limits assumed); assay: ELISA on coated RANKL, Fc-linked dimers; EC50 ratio to OPG(22-194).Fc wt; increase in binding (lower EC50)
T1 construct: also called Rank ligand
T1 sequence (looked up): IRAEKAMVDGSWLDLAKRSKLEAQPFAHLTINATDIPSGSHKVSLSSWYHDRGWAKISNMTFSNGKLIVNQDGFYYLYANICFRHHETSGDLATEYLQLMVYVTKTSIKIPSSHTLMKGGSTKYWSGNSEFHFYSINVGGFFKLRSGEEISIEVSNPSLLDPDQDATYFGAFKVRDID
Method: (§1) Purified mammalian-expressed OVP proteins are tested for binding to RANKL and TRAIL by ELISA. Wells are coated with RANKL at 5 μg/mL or TRAIL at 10 μg/mL in PBS O/N at 4° C., rinsed with PBS, blocked with 0.5% casein in PBS at room temp for 2 h, then rinsed again with PBS. Concentrations of OVPs to be tested are normalised to around 10 nM and then 50 μL applied to the antigen-coated wells in serial doubling dilutions over 6-7 wells for 1 h. […] All washes in between binding incubations are 3 times in PBS/0.05% Tween, then 3 times with PBS. Detection of bound OVPs is achieved with incubation of 50 μL anti-FLAG at […] for 20 min then 50 μL goat anti-mouse-peroxidase conjugate (BioRad) at 1:1500 for 20 min. TMB is used as enzyme substrate and then binding signal is measured at A_{450 nm}.

TRAIL [2] = target: T2, TRAIL (human, UniProt P50591 114-281); assay: ELISA on coated TRAIL, Fc-linked dimers; EC50 ratio to OPG(22-194).Fc wt; reduction in binding (higher EC50); # by extrapolation
T2 construct: also called TNF-related apoptosis inducing ligand; recombinant human TRAIL (R&D Systems)
T2 sequence (P50591 114-281 limits assumed): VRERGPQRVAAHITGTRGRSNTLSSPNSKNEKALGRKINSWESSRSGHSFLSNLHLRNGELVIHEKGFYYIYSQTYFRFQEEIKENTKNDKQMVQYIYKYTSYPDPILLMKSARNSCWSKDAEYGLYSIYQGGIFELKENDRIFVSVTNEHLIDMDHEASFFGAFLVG
Method: as §1

RANKL [3] = target: T1, RANKL; assay: ELISA on coated RANKL, Fc-linked dimers; EC50 ratio to OPG(22-194).Fc wt; printed without parentheses
Method: as §1

TRAIL [4] = target: T2, TRAIL; assay: ELISA on coated TRAIL, Fc-linked dimers; EC50 ratio to OPG(22-194).Fc wt; reduction in binding (higher EC50)
Method: as §1

TRAIL [5] = target: T2, TRAIL; assay: ELISA on coated TRAIL, Fc-linked dimers; EC50 ratio to OPG(22-194).Fc wt; printed in parentheses (reduction in binding, higher EC50)
Method: as §1

RANKL [6] = target: T1, RANKL; assay: ELISA on coated RANKL, Fc-linked dimers; EC50 ratio to OPG(22-194).Fc wt; reduction in binding (higher EC50)
Method: as §1

TRAIL [7] = target: T2, TRAIL; assay: ELISA on coated TRAIL, Fc-linked dimer
Method: as §1

RANKL fold change cf wt (RANKL [1]): 2.1 fold | TRAIL fold change cf wt (TRAIL [2]): > 125 fold
B1: OVP I115G (Fc fusion)
chain: ETFPPKYLHYDEETSHQLLCDKCPPGTYLKQHCTAKWKTVCAPCPDHYYTDSWHTSDECLYCSPVCKELQYVKQECNRTHNRVCECKEGRYLEGEFCLKHRSCPPGFGVVQAGTPERNTVCKRCPDGFFSNETSSKAPCRKHTNCSVFGLLLTQKGNATHDNICSGNSESTQK
notes: Tested as C-terminal Fc-linked dimer with FLAG tag, from HEK 293 EBNA cells; signal peptide 1-21 processed; not shown: human Fc domain of vector pAPEX-3.Fc; C-terminal FLAG tag

RANKL fold change cf wt (RANKL [3]): 1 fold | TRAIL fold change cf wt (TRAIL [4]): 50 fold
B2: OVP I115M, F128S (Fc fusion)
chain: B1 chain with G94M, F107S
notes: Tested as C-terminal Fc-linked dimer with FLAG tag, from HEK 293 EBNA cells; signal peptide 1-21 processed; also called I115M plus: F128S; not shown: human Fc domain of vector pAPEX-3.Fc; C-terminal FLAG tag

TRAIL fold change cf wt (TRAIL [5]): 0.8 fold | RANKL fold change cf wt (RANKL [6]): 1.75 fold
B3: OVP I115T, K51R (Fc fusion)
chain: B1 chain with K30R, G94T
notes: as for B1

RANKL fold change cf wt (RANKL [1]): 1.1 fold | TRAIL fold change cf wt (TRAIL [5]): 1 fold
B4: OVP N102D (Fc fusion)
chain: B1 chain with N81D, G94I
notes: as for B1

RANKL fold change cf wt (RANKL [6]): 2.3 fold | TRAIL fold change cf wt (TRAIL [2]): 50 fold
B5: OVP I115R (Fc fusion)
chain: B1 chain with G94R
notes: as for B1

RANKL fold change cf wt (RANKL [6]): 2.1 fold | TRAIL fold change cf wt (TRAIL [2]): 250 fold
B6: OVP I115M, F128I (Fc fusion)
chain: B1 chain with G94M, F107I
notes: Tested as C-terminal Fc-linked dimer with FLAG tag, from HEK 293 EBNA cells; signal peptide 1-21 processed; also called I115M plus: F128I; not shown: human Fc domain of vector pAPEX-3.Fc; C-terminal FLAG tag

RANKL fold change cf wt (RANKL [3]): 1 fold | TRAIL fold change cf wt (TRAIL [4]): 12.5 fold
B7: OVP I115M, R122G (Fc fusion)
chain: B1 chain with G94M, R101G
notes: Tested as C-terminal Fc-linked dimer with FLAG tag, from HEK 293 EBNA cells; signal peptide 1-21 processed; also called I115M plus: R122G; not shown: human Fc domain of vector pAPEX-3.Fc; C-terminal FLAG tag

RANKL fold change cf wt (RANKL [6]): 1.1 fold | TRAIL fold change cf wt (TRAIL [2]): 390 fold
B8: OVP I115N (Fc fusion)
chain: B1 chain with G94N
notes: as for B1

binding result (TRAIL [7]): no binding | RANKL fold change cf wt (RANKL [6]): 60 fold
B9: OVP I115K (Fc fusion)
chain: B1 chain with G94K
notes: as for B1

RANKL fold change cf wt (RANKL [1]): 1.2 fold | TRAIL fold change cf wt (TRAIL [2]): 250 fold
B10: OVP I115M, F128L (Fc fusion)
chain: B1 chain with G94M, F107L
notes: Tested as C-terminal Fc-linked dimer with FLAG tag, from HEK 293 EBNA cells; signal peptide 1-21 processed; also called I115M plus: F128L; not shown: human Fc domain of vector pAPEX-3.Fc; C-terminal FLAG tag

Source: patent publication US20060189528A1 (EVOGENIX, published 2006)
